We go through one protein from PMC5071727, “A Structure‐Guided Switch in the Regioselectivity of a Tryptophan Halogenase” (Chembiochem, 2016).

The Km is the concentration of substrate that gives half-maximal velocity. As a reminder, the kcat is the number of substrate molecules converted per active site and unit of time at saturation. By kcat/Km is commonly meant the second-order rate constant that governs catalysis at low substrate concentration.

Holding throughout (assay): steady-state chlorination kinetics
Common to all, as to assay type: biochemical, Streptomyces toxytricini
What all share (settings): wild type; kinetic assay conditions not given

Substrate in data set [1]: NC(=O)c1ccccc1N
An excerpt:
(§1) steady-state chlorination kinetics on SttH

Substrate in data set [2]: N[C@@H](Cc1c[nH]c2ccccc12)C(=O)O
Description: as §1

Substrate in data set [3]: Nc1ccccc1C(=O)C[C@H](N)C(=O)O
Description: as §1

B1: SttH (Streptomyces toxytricini) (protein)
chain: MNTRNPDKVVIVGGGTAGWMTASYLKKAFGERVSVTLVESGTIGTVGVGEATFSDIRHFFEFLDLREEEWMPACNATYKLAVRFQDWQRPGHHFYHPFEQMRSVDGFPLTDWWLQNGPTDRFDRDCFVMASLCDAGRSPRYLNGSLLQQEFDERAEEPAGLTMSEHQGKTQFPYAYHFEAALLAEFLSGYSKDRGVKHVVDEVLEVKLDDRGWISHVVTKEHGDIGGDLFVDCTGFRGVLLNQALGVPFVSYQDTLPNDSAVALQVPLDMEARGIPPYTRATAKEAGWIWTIPLIGRIGTGYVYAKDYCSPEEAERTLREFVGPEAADVEANHIRMRIGRSEQSWKNNCVAIGLSSGFVEPLESTGIFFIHHAIEQLVKHFPAGDWHPQLRAGYNSAVANVMDGVREFLVLHYLGAARNDTRYWKDTKTRAVPDALAERIERWKVQLPDSENVFPYYHGLPPYSYMAILLGTGAIGLRPSPALALADPAAAEKEFTAIRDRARFLVDTLPSQYEYFAAMGQRV
notes: wild type, purified recombinant from E. coli; dimer in crystal
Take B1: in data set [1], the Km was 1075 ± 154 µM, the kcat came out at 0.0202 ± 0.000667 s⁻¹ and the kcat/Km worked out at 18.3 ± 2.83 M⁻¹ s⁻¹. Also, in data set [2], the Km amounted to 0.8 ± 0.1 µM, the kcat came out at 0.0108 ± 0.000333 s⁻¹ and the kcat/Km amounted to 13700 ± 1580 M⁻¹ s⁻¹. Also, in data set [3], the Km was 241 ± 32 µM, the kcat was 0.0085 ± 0.000333 s⁻¹ and the kcat/Km was determined as 35 ± 5 M⁻¹ s⁻¹.
